From patent US20220242969A1 (FREDAX, published 2022)

B1: h5A10-DFO (antibody, human IgG1, kappa, V domains shown)
VH: QVTLKESGPALVKPTQTLTLTCTFSGFSLSTTGMGVSWIRQPPGKALEWLAHIYWDDDKRYSTSLKTRLTISEDSSKNQVVLTMTNMDPVDTATYYCARKGYYGYFDYWGQGTLVTVSS
VL: DIQMTQSPSSLSASVGDRVTVTCRASQNVNTDVAWYQQKPGKAPKALIFSTSYLQSGVPSRFSGSGSGTDFTLTISSLQPEDFATYYCQQYSNYPLTFGQGTKVEIKR
modifications: DFO (deferoxamine) chelator conjugated to the antibody; sites and chain not stated
notes: Humanised 5A10 IgG1/kappa conjugated with the chelator DFO; also called h5A10-DFO (141203)
B2: h5A10-DTPA (antibody, human IgG1, kappa, V domains shown)
VH: QVTLKESGPALVKPTQTLTLTCTFSGFSLSTTGMGVSWIRQPPGKALEWLAHIYWDDDKRYSTSLKTRLTISEDSSKNQVVLTMTNMDPVDTATYYCARKGYYGYFDYWGQGTLVTVSS
VL: DIQMTQSPSSLSASVGDRVTVTCRASQNVNTDVAWYQQKPGKAPKALIFSTSYLQSGVPSRFSGSGSGTDFTLTISSLQPEDFATYYCQQYSNYPLTFGQGTKVEIKR
modifications: DTPA chelator conjugated to the antibody; sites and chain not stated
notes: Humanised 5A10 IgG1/kappa conjugated with the chelator DTPA; also called h5A10-DTPA (141203); DTPA-h5A10
B3: h5A10-DOTA (antibody, human IgG1, kappa, V domains shown)
VH: QVTLKESGPALVKPTQTLTLTCTFSGFSLSTTGMGVSWIRQPPGKALEWLAHIYWDDDKRYSTSLKTRLTISEDSSKNQVVLTMTNMDPVDTATYYCARKGYYGYFDYWGQGTLVTVSS
VL: DIQMTQSPSSLSASVGDRVTVTCRASQNVNTDVAWYQQKPGKAPKALIFSTSYLQSGVPSRFSGSGSGTDFTLTISSLQPEDFATYYCQQYSNYPLTFGQGTKVEIKR
modifications: DOTA chelator conjugated to the antibody; sites and chain not stated
notes: Humanised 5A10 IgG1/kappa conjugated with the chelator DOTA; also called h5A10-DOTA (141211)
B4: humanised monoclonal antibody 5A10 (h5A10) (antibody, human IgG1, kappa, V domains shown)
VH: QVTLKESGPALVKPTQTLTLTCTFSGFSLSTTGMGVSWIRQPPGKALEWLAHIYWDDDKRYSTSLKTRLTISEDSSKNQVVLTMTNMDPVDTATYYCARKGYYGYFDYWGQGTLVTVSS
VL: DIQMTQSPSSLSASVGDRVTVTCRASQNVNTDVAWYQQKPGKAPKALIFSTSYLQSGVPSRFSGSGSGTDFTLTISSLQPEDFATYYCQQYSNYPLTFGQGTKVEIKR
notes: also called hu5A10 (141203); h5A10 (141203)

Each binder was assayed against T1, prostate specific antigen (PSA) (human, UniProt P07288 25-261, limits assumed) (assay: SPR (Biacore 3000), PSA amine-coupled on CM4 chip, antibody in solution).
T1 construct: The antigen of the SPR study is only called 'PSA' (169 ug/ml, provided by Diaprost AB, Mw 30 000 Da); also called kallikrein III
Experimental: All binding experiments were performed on CM4 chip on a Biacore™ 3000 instrument. The chip and all the reagents needed for activation, immobilization, deactivation, binding and regeneration were purchased from GE Healthcare and used according to the guidelines from the manufacturer.
The dissociation phase data was fitted and the dissociation rate constants (koff) were estimated (see Table 1). [0279] (e) Estimation of the association rate constant (kₒₙ)
In order to estimate the association rate constants, the dissociation rate constants (Table 1) were used in the fitted equations. [0281] (f) Estimation of the dissociation constant (kD)

T1 sequence (P07288 25-261 limits assumed): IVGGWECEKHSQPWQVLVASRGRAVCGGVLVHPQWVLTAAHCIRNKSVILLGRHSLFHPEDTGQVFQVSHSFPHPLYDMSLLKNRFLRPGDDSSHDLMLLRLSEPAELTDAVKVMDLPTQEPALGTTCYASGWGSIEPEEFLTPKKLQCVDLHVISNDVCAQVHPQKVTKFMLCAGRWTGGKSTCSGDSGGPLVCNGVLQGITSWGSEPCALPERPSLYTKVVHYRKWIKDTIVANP

Binder	Kd [nM]	koff [s⁻¹]	kon [M⁻¹ s⁻¹]
B1	0.05	8.3e-06	170000
B2	0.01	4.8e-06	390000
B3	0.02	1.17e-05	540000
B4	0.01	4.8e-06	620000
